Reference: article PMC7864929, “Crystal structure of the human PRPK–TPRKB complex” (Communications Biology, 2021)
Changes are numbered by the printed parent chain. Numbers in names are those of the source.

T1: MBP-tagged OSGEP (human, UniProt Q9NPF4 1-335)
T1 construct: human OSGEP (gene bought from DNAsu); Cloned into a modified pMal-c2X vector; also called MBP-OSGEP; Kae1 (yeast ortholog); source: E. coli BL21-CodonPlus (DE3), purified (amylose resin, HiTrap Q anion exchange)
T1 sequence (looked up): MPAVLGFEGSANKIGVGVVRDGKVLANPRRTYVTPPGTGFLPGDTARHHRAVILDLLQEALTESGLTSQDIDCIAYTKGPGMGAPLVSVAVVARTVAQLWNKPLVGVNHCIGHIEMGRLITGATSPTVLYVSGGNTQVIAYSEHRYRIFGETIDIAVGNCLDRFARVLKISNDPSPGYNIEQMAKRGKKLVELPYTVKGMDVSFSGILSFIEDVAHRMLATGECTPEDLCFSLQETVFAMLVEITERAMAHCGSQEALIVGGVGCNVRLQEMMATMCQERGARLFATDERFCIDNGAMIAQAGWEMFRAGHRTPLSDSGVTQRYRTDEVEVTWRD

B1: GST-tagged PRPK S250A (enzyme, human, UniProt Q96S44 1-253, looked up)
chain: MAAARATTPADGEEPAPEAEALAAARERSSRFLSGLELVKQGAEARVFRGRFQGRAAVIKHRFPKGYRHPALEARLGRRRTVQEARALLRCRRAGISAPVVFFVDYASNCLYMEEIEGSVTVRDYIQSTMETEKTPQGLSNLAKTIGQVLARMHDEDLIHGDLTTSNMLLKPPLEQLNIVLIDFGLSFISALPEDKGVDLYVLEKAFLSTHPNTETVFEAFLKSYSTSSKKARPVLKKLDEVRLRGRKRAMVG
notes: human p53-related protein kinase (PRPK, TP53RK) with S250A; source: E. coli BL21 lysate, captured on glutathione Sepharose 4B resin
B2: GST-tagged PRPK K205A (enzyme, human, UniProt Q96S44 1-253, looked up)
chain: B1 chain with K205A, A250S
notes: human p53-related protein kinase (PRPK, TP53RK) with K205A; source: E. coli BL21 lysate, captured on glutathione Sepharose 4B resin
B3: GST-tagged PRPK R80A (enzyme, human, UniProt Q96S44 1-253, looked up)
chain: B1 chain with R80A, A250S
notes: human p53-related protein kinase (PRPK, TP53RK) with R80A; source: E. coli BL21 lysate, captured on glutathione Sepharose 4B resin
B4: GST-tagged PRPK S250E (enzyme, human, UniProt Q96S44 1-253, looked up)
chain: B1 chain with A250E
notes: human p53-related protein kinase (PRPK, TP53RK) with S250E; source: E. coli BL21 lysate, captured on glutathione Sepharose 4B resin
B5: GST-tagged PRPK K65A (enzyme, human, UniProt Q96S44 1-253, looked up)
chain: B1 chain with K65A, A250S
notes: human p53-related protein kinase (PRPK, TP53RK) with K65A; source: E. coli BL21 lysate, captured on glutathione Sepharose 4B resin
B6: GST-tagged PRPK (wild type) (enzyme, human, UniProt Q96S44 1-253, looked up)
chain: B1 chain with A250S
notes: human p53-related protein kinase (PRPK, TP53RK); Cloned into pGEX-6p-1; Parent of the GST-PRPK mutants; also called GST-PRPK; TP53RK; source: E. coli BL21 lysate, captured on glutathione Sepharose 4B resin

target: T1, MBP-tagged OSGEP; test: pull-down; GST-tagged PRPK proteins captured on 20 µl glutathione Sepharose 4B from BL21 lysates, then incubated with about 15 µg purified His-TPRKB or MBP-OSGEP; 20 mM Tris-HCl pH 8.0, 300 mM NaCl, 0.1% Nonidet P-40, 5% glycerol, 2 mM DTT, 0.4 mM PMSF; 2 h at 4°C; 4 washes; Western blot with anti-His or anti-MBP; details: both partners purified

binding result | Binder
binds | B1
binds | B2
binds | B3
binds | B4
binds | B5
binds | B6
